This note sets out measurements from patent publication US20260176358A1 (JIANGSU HENGRUI PHARMACEUTICALS, published 2026).

Experiment [1] has as its target T1, human CGRP (human, UniProt P06881 83-119).
T1 peptide (looked up): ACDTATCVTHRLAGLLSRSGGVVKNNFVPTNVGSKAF
The experiment can be described thus: ELISA, coated CGRP. Here is the method:
(§1) In this test example, the abilities of the chimeric antibodies and humanized antibodies of C1 #, C9 #, C21 #, and C28 #to bind to human CGRP and rat CGRP were assessed using ELISAs. Plates were coated with […] human CGRP and rat CGRP, respectively, and blocked, and the antibodies, serially diluted, were then added. The plates were incubated for 1 h and washed, and a horseradish peroxidase-labeled anti-human Fc secondary antibody was then added. After incubation, color development was performed. […] The plates were incubated for 1 h and washed, and the antibodies, serially diluted, were then added. The plates were incubated for 1 h and washed, and a horseradish peroxidase-labeled streptavidin secondary antibody was then added. After incubation, color development was performed.
On the technique in general: In an ELISA, binding on a coated surface is turned into a signal by an enzyme label.

The target in experiment [2] is T2, rat CGRP (rat, UniProt P01256 83-119).
T2 peptide (looked up): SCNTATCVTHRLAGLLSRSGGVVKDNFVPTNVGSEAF
The experiment can be described thus: ELISA, coated CGRP. Here is the method: as §1

B1: C1H1L1 (antibody, human IgG1, kappa, V domains shown)
VH: EVQLVQSGAEVKKPGSSVKVSCKASGYTFSTSWMNWVRQAPGQGLEWMGQIYPGDGYTNYSGKFRGRVTITADKSTSTAYMELSSLRSEDTAVYYCAGDYEALWGQGTTVTVSS
VL: DIVMTQTPLSLPVTPGEPASISCRSSQSLVHSNGNTYFHWYLQKPGQSPQLLIYEVSNRFSGVPDRFSGSGSGTDFTLKISRVEAEDVGVYYCSQSTHVPFTFGQGTKLEIKR
As a reminder, the EC50 is the concentration at which the effect is half-maximal. High values mean a less potent agent, low ones a more potent agent. Regarding B1, the EC50 in experiment [1] is 1.83 nM; in experiment [2], 3.1 nM.

B2: C1H1L2 (antibody, human IgG1, kappa, V domains shown)
VH: EVQLVQSGAEVKKPGSSVKVSCKASGYTFSTSWMNWVRQAPGQGLEWMGQIYPGDGYTNYSGKFRGRVTITADKSTSTAYMELSSLRSEDTAVYYCAGDYEALWGQGTTVTVSS
VL: DIVMTQTPLSLPVTPGEPASISCRSSQSLVHSSGNTYFHWYLQKPGQSPQLLIYEVSNRFSGVPDRFSGSGSGTDFTLKISRVEAEDVGVYYCSQSTHVPFTFGQGTKLEIKR
As to B2, the EC50 was 2.72 nM in experiment [1] and 2.44 nM in experiment [2].

B3: C1H3L2 (antibody, human IgG1, kappa, V domains shown)
VH: EVQLVQSGAEVKKPGSSVKVSCKASGYTFSTSWMNWVRQAPGQGLEWMGQIYPGDGYTNYNVKFRGRVTITADKSTSTAYMELSSLRSEDTAVYYCAGDYEALWGQGTTVTVSS
VL: DIVMTQTPLSLPVTPGEPASISCRSSQSLVHSSGNTYFHWYLQKPGQSPQLLIYEVSNRFSGVPDRFSGSGSGTDFTLKISRVEAEDVGVYYCSQSTHVPFTFGQGTKLEIKR
For B3, the figures for the EC50 in experiment [1] and in experiment [2] were 1.39 nM and 1.97 nM, respectively.

B4: C1H2L1 (antibody, human IgG1, kappa, V domains shown)
VH: EVQLVQSGAEVKKPGSSVKVSCKASGYTFSTSWMNWVRQAPGQGLEWMGQIYPGDGYTNYQGKFRGRVTITADKSTSTAYMELSSLRSEDTAVYYCAGDYEALWGQGTTVTVSS
VL: DIVMTQTPLSLPVTPGEPASISCRSSQSLVHSNGNTYFHWYLQKPGQSPQLLIYEVSNRFSGVPDRFSGSGSGTDFTLKISRVEAEDVGVYYCSQSTHVPFTFGQGTKLEIKR
On to B4, for which the EC50 in experiment [1] stood at 2.61 nM; in experiment [2], 2.38 nM.

B5: C21H2L2 (antibody, human IgG1, kappa, V domains shown)
VH: EVQLVQSGAEVKKPGASVKVSCKASGYTFTDYYMNWVRQAPGQRLEWIGDINPNQGGTNYNQKFKGRATLTVDKSASTAYMELSSLRSEDTAVYYCASIIIVPNYFDYWGQGTTVTVSS
VL: DIQMTQSPSSLSASVGDRVTITCKASQNVDTNVAWFQQKPGKSPKALIYSASYRYSGVPSRFSGSGSGTDFTLTISSLQPEDFATYYCQQYNNYPYTFGGGTKVEIKR
Regarding B5, the EC50 in experiment [1] came out at 3.4 nM; in experiment [2] it was 9.27 nM.

B6: C28H3L1 (antibody, human IgG1, kappa, V domains shown)
VH: EVQLVQSGAEVKKPGASVKVSCKASGYTFTDYYMNWVRQAPGQRLEWMGDINPNQGVTTYNQKFKGRVTITVDKSASTAYMELSSLRSEDTAVYYCASIIIVPDYFDYWGQGTTVTVSS
VL: DIQMTQSPSSVSASVGDRVTITCKASQNVGSNVAWYQQKPGKSPKALIYSASYRYSGVPSRFSGSGSGTDFTLTISSLQPEDFATYYCQQYNSYPYTFGGGTKVEIKR
As to B6, the EC50 in experiment [1] was determined as 1.65 nM; in experiment [2], 3.97 nM.

B7: C21H4L1 (antibody, human IgG1, kappa, V domains shown)
VH: EVQLVQSGAEVKKPGASVKVSCKASGYTFTDYYMNWVRQAPGQRLEWIGDINPNTGGTNYNQKFKGRATLTVDKSASTAYMELSSLRSEDTAVYYCASIIIVPNYFDYWGQGTTVTVSS
VL: DIQMTQSPSSLSASVGDRVTITCKASQNVDTNVAWFQQKPGKAPKSLIYSASYRYSGVPSRFSGSGSGTDFTLTISSLQPEDFATYYCQQYNNYPYTFGGGTKVEIKR
B7: the EC50 in experiment [1] came to 2.9 nM; in experiment [2] it was 7.36 nM.

B8: C21H1L2 (antibody, human IgG1, kappa, V domains shown)
VH: EVQLVQSGAEVKKPGASVKVSCKASGYTFTDYYMNWVRQAPGQRLEWIGDINPNNVGTNYNQKFKGRATLTVDKSASTAYMELSSLRSEDTAVYYCASIIIVPNYFDYWGQGTTVTVSS
VL: DIQMTQSPSSLSASVGDRVTITCKASQNVDTNVAWFQQKPGKSPKALIYSASYRYSGVPSRFSGSGSGTDFTLTISSLQPEDFATYYCQQYNNYPYTFGGGTKVEIKR
Consider B8, for which the 50% effective concentration (EC50) in experiment [1] turned out to be 2.57 nM; in experiment [2], 5.26 nM.

B9: C21H3L1 (antibody, human IgG1, kappa, V domains shown)
VH: EVQLVQSGAEVKKPGASVKVSCKASGYTFTDYYMNWVRQAPGQRLEWMGDINPNSGGTNYNQKFKGRVTITVDKSASTAYMELSSLRSEDTAVYYCASIIIVPNYFDYWGQGTTVTVSS
VL: DIQMTQSPSSLSASVGDRVTITCKASQNVDTNVAWFQQKPGKAPKSLIYSASYRYSGVPSRFSGSGSGTDFTLTISSLQPEDFATYYCQQYNNYPYTFGGGTKVEIKR
For the molecule B9, the EC50 in experiment [1] stood at 3.57 nM; in experiment [2], 7.94 nM.

B10: C28H4L1 (antibody, human IgG1, kappa, V domains shown)
VH: EVQLVQSGAEVKKPGASVKVSCKASGYTFTDYYMNWVRQAPGQRLEWIGDINPNQGVTTYNQKFKGRATLTVDKSASTAYMELSSLRSEDTAVYYCASIIIVPDYFDYWGQGTTVTVSS
VL: DIQMTQSPSSVSASVGDRVTITCKASQNVGSNVAWYQQKPGKSPKALIYSASYRYSGVPSRFSGSGSGTDFTLTISSLQPEDFATYYCQQYNSYPYTFGGGTKVEIKR
Regarding B10, the EC50 amounted to 1.43 nM in experiment [1] and 6.45 nM in experiment [2].

B11: C28H5L1 (antibody, human IgG1, kappa, V domains shown)
VH: EVQLVQSGAEVKKPGASVKVSCKASGYTFTDYYMNWVRQAPGQRLEWIGDINPNSGVTTYNQKFKGRATLTVDKSASTAYMELSSLRSEDTAVYYCASIIIVPDYFDYWGQGTTVTVSS
VL: DIQMTQSPSSVSASVGDRVTITCKASQNVGSNVAWYQQKPGKSPKALIYSASYRYSGVPSRFSGSGSGTDFTLTISSLQPEDFATYYCQQYNSYPYTFGGGTKVEIKR
As to B11, the concentration for a half-maximal effect (EC50) is 1.58 nM in experiment [1] and 3.72 nM in experiment [2].

B12: C28H7L1 (antibody, human IgG1, kappa, V domains shown)
VH: EVQLVQSGAEVKKPGASVKVSCKASGYTFTDYYMNWVRQAPGQRLEWIGDINPNTGVTTYNQKFKGRATLTVDKSASTAYMELSSLRSEDTAVYYCASIIIVPDYFDYWGQGTTVTVSS
VL: DIQMTQSPSSVSASVGDRVTITCKASQNVGSNVAWYQQKPGKSPKALIYSASYRYSGVPSRFSGSGSGTDFTLTISSLQPEDFATYYCQQYNSYPYTFGGGTKVEIKR
As for B12, the figures for the EC50 in experiment [1] and in experiment [2] were 1.47 nM and 2.72 nM, respectively.

B13: C21H4L2 (antibody, human IgG1, kappa, V domains shown)
VH: EVQLVQSGAEVKKPGASVKVSCKASGYTFTDYYMNWVRQAPGQRLEWIGDINPNTGGTNYNQKFKGRATLTVDKSASTAYMELSSLRSEDTAVYYCASIIIVPNYFDYWGQGTTVTVSS
VL: DIQMTQSPSSLSASVGDRVTITCKASQNVDTNVAWFQQKPGKSPKALIYSASYRYSGVPSRFSGSGSGTDFTLTISSLQPEDFATYYCQQYNNYPYTFGGGTKVEIKR
Consider B13, for which the EC50 in experiment [1] was 2.8 nM; in experiment [2], 5.68 nM.

B14: C21H1L1 (antibody, human IgG1, kappa, V domains shown)
VH: EVQLVQSGAEVKKPGASVKVSCKASGYTFTDYYMNWVRQAPGQRLEWIGDINPNNVGTNYNQKFKGRATLTVDKSASTAYMELSSLRSEDTAVYYCASIIIVPNYFDYWGQGTTVTVSS
VL: DIQMTQSPSSLSASVGDRVTITCKASQNVDTNVAWFQQKPGKAPKSLIYSASYRYSGVPSRFSGSGSGTDFTLTISSLQPEDFATYYCQQYNNYPYTFGGGTKVEIKR
Take B14: the 50% effective concentration (EC50) was found to be 2.54 nM in experiment [1] and 3.86 nM in experiment [2].
